Results taken from US20260217797A1.
pKd: −log10 of the molar value.

Experiments:
[1] = target: SARS-CoV-2 B.1.1.7 N501Y (Alpha) RBD (SARS-CoV-2) (UniProt P0DTC2); assay: Octet BLI single point, monovalent
[2] = target: SARS-CoV-2 L452R RBD (Epsilon) (SARS-CoV-2) (UniProt P0DTC2); assay: Octet BLI single point, monovalent

Substance	pKd [1]	pKd [2]
RGN10933 (antibody)	8.18	8.02
RGN10987 (antibody)	7.82	7.76
